The text below walks through data of patent publication US11389516B2, “Composition comprising UNE-L domain of leucyl-tRNA synthetase as effective ingredient for augmenting muscle” (GACHON UNIVERSITY OF INDUSTRY-ACADEMIC COOPERATION …, priority 2017, dated 2022).

Test [1] has as its target T1, Vps34 (Mus musculus, UniProt Q6PF93).
T1 construct: endogenous in cells; host or cells: MEF cells
Put plainly: In vitro Vps34 lipid kinase assay on Vps34 immune complex from MEF cells with added purified GST protein. The format is biochemical. Particulars: FIG. 7. On the procedure: To perform in vitro Vps34 lipid kinase assay, the Vps34 immunocomplex was washed with PBS containing 1% NP-40 three times, with PBS containing 100 mM Tris (pH 7.4) containing 500 mM LiCl three times, and with TNE buffer (10 mM Tris (pH 7.4), 100 mM NaCl and 1 mM EDTA) twice, then 2 mg/ml of […] and 10 μCi ^32P-γ-ATP (PerkinElmer) were added to TNE buffer. The reaction was terminated by adding 20 μl of 8 N HCl and lipid was extracted with 160 μl of CHCl3:MeOH (1:1). ^32P-PI(3)P was separated on a thin layer chromatography plate (EMD Chemicals Inc.) using CHCl3:MeOH:NH4OH:water (60:47:2:11.3) as a solvent, followed by measuring Vps34 activity by radiograph. The activity of Vps34 was quantified by standardizing the Vps34 amount included in the immune precipitate determined by quantification of Western blotting. To measure the amount of intracellular PI(3)P, ELISA-format assay was performed according to the manufacturer's protocol, leading to quantification of the amount of PI(3)P from nonlinear fitting of the PI(3)P standard. All quantificative data was presented as mean±standard deviation of the values obtained from at least three independent experiments performed separately. Statistical significance was analyzed by student's t-test ([…]. **p≤0.01).
Particularly, MEF cells were cultured in the absence of FBS for overnight. On the next day, the cells were cultured in leucine-free DMEM for 2 hours. Anti-Atg14L antibody was added in the cell lysate thereto, followed by immunoprecipitation to eliminate Atg14L from the cell lysate. Then, anti-Vps34 antibody was added thereto, followed by immunoprecipitation of Vps34. The Vps34 immune complex was placed in TNE buffer supplemented with 2 mg/ml of PI, 10 μCi ^32P-γ-ATP (PerkinElmer) and 3.75 μg of GST protein in the presence or absence of leucine for 20 minutes at 30° C. […] All the quantification data was presented as mean±standard deviation of the values obtained from at least three independent experiments performed separately. Statistical significance was analyzed by student's t-test (*p≤0.05. **p≤0.01).

The subject of test [2] is S6K1 phosphorylation (mTORC1 activity). As to the kind of experiment: Western blotting of phosphorylated S6K1 in knock-down HEK293 cells with exogenous phosphatidic acid. The format is cell-based. Particulars: 100 μM PA, amino acid stimulation. On the procedure: Particularly, HEK293 cells were transducted with lentivirus expressing LRS shRNA (shLRS) or scrambled sequence shRNA (control). The cells were cultured in DMEM supplemented with 10% fetal bovine serum (FBS) in a 37° C., 5% CO2 incubator for 3 days. As for the LRS shRNA, shLRS-1 (TRCN0000290440) or shLRS-2 (TRCN0000290511) was used. As for the scrambled sequence shRNA, the sRNA previously described (Yoon, et al., J Cell Biol., 2011 195(3); 435-447) was used. Lentivirus packaging and transduction were performed according to the methods described in the following paper (Sun, et al., Proc Natl Acad Sci USA., 2008, 105(24); 8286-8291). […] The cell lysate was analyzed by Western blotting according to the conventional method. The intensity of the bands obtained by Western blotting was quantified by measuring the X ray film image density using Image J software.
Particularly, HEK293 cells were transduced with shLRS, shRagD lentivirus or lentivirus expressing scrambled sequence shRNA (control), and then stimulated with amino acids by the same manner as described in Example <1-1> in the presence or absence of 100 μM phosphatidic acid (PA), a product of PLD1. Lysates of the cells were analyzed by Western blotting according to the method conventionally performed.

For test [3], the system named is S6K1 phosphorylation (mTORC1 activation). As to the kind of experiment: Amino acid mediated mTORC1 activation through S6K1 phosphorylation, Western blotting, HEK293 cells treated with SAR405. It counts as cell-based. Here is the method: Particularly, HEK293 cells were transducted with lentivirus expressing LRS shRNA (shLRS) or scrambled sequence shRNA (control). The cells were cultured in DMEM supplemented with 10% fetal bovine serum (FBS) in a 37° C., 5% CO2 incubator for 3 days. As for the LRS shRNA, shLRS-1 (TRCN0000290440) or shLRS-2 (TRCN0000290511) was used. As for the scrambled sequence shRNA, the sRNA previously described (Yoon, et al., J Cell Biol., 2011 195(3); 435-447) was used. Lentivirus packaging and transduction were performed according to the methods described in the following paper (Sun, et al., Proc Natl Acad Sci USA., 2008, 105(24); 8286-8291). The simultaneous expression of Vps15 and Vps34 was necessary for the stability and activity of Vps34, so the cells were transfected with bicistronic Myc-Vps34/V5-Vps15 plasmid (Yan, et al., Biochem J., 2009, 417(3); 747-755), followed by culture in the absence of FBS for overnight. On the next day, the cells were cultured in DMEM without leucine or amino acid for 2 hours, followed by stimulating the cells with 0.8 mM leucine or amino acids at the same concentration as DMEM for 30 minutes. The cell lysate was analyzed by Western blotting according to the conventional method. The intensity of the bands obtained by Western blotting was quantified by measuring the X ray film image density using Image J software.
HEK293 cells were treated with SAR405 (APExBIO, US), a Vps34 specific inhibitor, and then amino acid mediated mTORC1 activation was investigated through S6K1 phosphorylation. […] Western blotting was performed by stimulating cells with amino acids by the same manner as described in Example <1-1> except that HEK293 cells were treated with SAR405 at the concentration of 3 μM and co-transfected with Myc-LRS and Myc-S6K1. At this time, the cells untreated with SAR405 were used as the control. All the quantification data was presented as mean±standard deviation of the values obtained from at least three independent experiments performed separately. Statistical significance was analyzed by student's t-test (*p≤0.05. **p≤0.01).
A general note: A western blot detects proteins with antibodies after separation by electrophoresis.

Test [4] has as its system C2C12 cells. Put plainly: MHC/DAPI immunostaining of differentiated C2C12 cells (differentiation index, fusion index, myotube size). It counts as cell-based, mouse. The settings on record: given as NP-UNE-L, three days differentiation, FIG. 15. On the procedure: Particularly, to investigate the role of the UNE-L domain of LRS, NP-UNE-L was constructed by binding the UNE-L domain of LRS to nanoparticles (NP) through the conventional method.
C2C12 cells, the mouse muscle cells, were maintained in DMEM supplemented with 4.5 g/l of glucose and 10% FBS in a 37° C., 7.5% CO2 incubator. To induce myogenesis, the cells were cultured on a plate coated with 0.2% gelatin until 100% confluence and the culture medium was replaced with the differentiation-inducing medium containing 2% horse serum. The culture medium was replaced every day for 3 days. During differentiation for three days, the differentiation-inducing medium treated group, the differentiation-inducing medium and NP-UNE-L treated group, and the differentiation-inducing medium and NP treated group were compared.
After the differentiation of C2C12 cells for three days, Western blotting was performed with the cell lysate according to the conventional method. To compare the differentiation level of C2C12 cells, C2C12 cells were fixed and immunostained with MHC, a myocyte differentiation marker, and 4′,6-diamidino-2-phenylindole (DAPI), a cell nucleus marker (Yoon et al. 2013 Molecular biology of the cell, 24(23) 3754-3763). […] The differentiation index was calculated as the percentage of nuclei in the myotubes stained with MHC and the fusion index was calculated as the percentage of nuclei in the myotubes with two or more nuclei stained with MHC. The myotube size was calculated as the number of nuclei in the myotube stained with MHC.

The subject of test [5] is tibialis anterior (TA). Put plainly: Muscle regeneration after BaCl2 induced muscle injury in AAV-UNE-L injected tibialis anterior. The format is in vivo, BL6 mice. The settings on record: expressed from AAV-UNE-L in TA, vs AAV-GFP contralateral. On the procedure: Particularly, AAV-UNE-L was injected into the left tibialis anterior (TA) of 10-week-old BL6 mice and AAV-GFP was injected into the right tibialis anterior (TA) of 10-week-old BL6 mice, and after 7 weeks, BaCl2 (prepared in saline at the concentration of 1.2% wt/vol: 50 μl) was injected to induce muscle injury (Sun et al., 2011, J. Cell Biol. 192, 69-81). 7 days later, the mice were sacrificed and the tibialis anterior muscles were separated and fixed in 10% paraformaldehyde, followed by embedding in paraffin. The section was performed to the thickness of 10 μm, and the prepared sections were placed on non-coated slides, followed by staining with hematoxylin and eosin (H&E). The stained slides were observed through a 10× dry objective lens of a microscope (Olympus CKX3-Houn Microscope). The stained images were photographed with 24-bit image and the regenarating myofiber cross section area (CSA) was measured by image J. CSA was measured only in the myofibers showing the characteristics of regenerating myofiber with the nucleus in the center.

Test [6] deals with tibialis anterior (TA) muscles. Put plainly: Muscle regeneration after BaCl2 induced muscle injury, NP-UNE-L injected with BaCl2. The settings on record: given as NP-UNE-L with BaCl2 into TA, vs NP in contralateral TA, 7 days, FIG. 16. The format is in vivo, BL6 mice. Here is the method:
Particularly, BaCl2 (prepared in saline at the concentration of 1.2% wt/vol: 50 μl) was injected into the tibialis anterior (TA) muscles of 10-week-old BL6 mice to induce muscle injury (Sun et al., 2011, J. Cell Biol. 192, 69-81). NP-UNE-L was injected with BaCl2 on the left side and NP was injected with BaCl2 on the right side. 7 days later, the mice were sacrificed and the tibialis anterior muscles were separated and placed in 2-methylbutane which was coldly prepared in liquid nitrogen, followed by embedding in TBS tissue freezing medium. Cryosection was performed at −20° C. to the thickness of 10 μm by using a cryostat (Microm HM550; Thermo Fisher Scientific). The prepared sections were placed on non-coated slides, followed by staining with hematoxylin and eosin (H&E). The stained slides were observed through a 10× dry objective lens of a microscope (DMI 4000B; Leica). The stained images were photographed with a 24-bit image camera (RETIGA EXi; Q Imaging) and the regenarating myofiber cross section area (CSA) was measured by image J. CSA was measured only in the myofibers showing the characteristics of regenerating myofiber with the nucleus in the center.

T1 sequence (Q6PF93 whole entry): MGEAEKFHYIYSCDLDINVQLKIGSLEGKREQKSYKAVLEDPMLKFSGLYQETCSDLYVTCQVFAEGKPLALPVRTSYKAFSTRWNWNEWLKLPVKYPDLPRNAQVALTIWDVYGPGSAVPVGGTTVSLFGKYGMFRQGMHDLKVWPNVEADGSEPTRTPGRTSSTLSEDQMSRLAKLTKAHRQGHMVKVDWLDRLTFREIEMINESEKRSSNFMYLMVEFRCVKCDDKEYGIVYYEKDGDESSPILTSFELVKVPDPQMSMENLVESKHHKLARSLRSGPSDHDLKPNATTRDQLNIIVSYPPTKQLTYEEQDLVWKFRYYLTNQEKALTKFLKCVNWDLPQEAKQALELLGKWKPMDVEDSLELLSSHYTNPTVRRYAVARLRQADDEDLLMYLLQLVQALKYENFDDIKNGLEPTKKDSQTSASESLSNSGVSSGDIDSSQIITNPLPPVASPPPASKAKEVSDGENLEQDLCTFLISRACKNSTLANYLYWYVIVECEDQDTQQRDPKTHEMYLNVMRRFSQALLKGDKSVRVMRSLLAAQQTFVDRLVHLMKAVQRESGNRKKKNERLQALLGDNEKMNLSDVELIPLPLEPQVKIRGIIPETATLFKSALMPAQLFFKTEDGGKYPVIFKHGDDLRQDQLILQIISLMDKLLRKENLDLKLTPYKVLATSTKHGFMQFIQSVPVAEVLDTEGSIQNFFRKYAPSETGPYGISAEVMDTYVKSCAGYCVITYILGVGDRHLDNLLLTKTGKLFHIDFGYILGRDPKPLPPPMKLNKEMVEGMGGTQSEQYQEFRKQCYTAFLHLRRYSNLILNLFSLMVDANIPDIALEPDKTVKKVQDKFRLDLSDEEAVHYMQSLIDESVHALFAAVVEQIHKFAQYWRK
T1 sequence (Q8VD65 whole entry partner): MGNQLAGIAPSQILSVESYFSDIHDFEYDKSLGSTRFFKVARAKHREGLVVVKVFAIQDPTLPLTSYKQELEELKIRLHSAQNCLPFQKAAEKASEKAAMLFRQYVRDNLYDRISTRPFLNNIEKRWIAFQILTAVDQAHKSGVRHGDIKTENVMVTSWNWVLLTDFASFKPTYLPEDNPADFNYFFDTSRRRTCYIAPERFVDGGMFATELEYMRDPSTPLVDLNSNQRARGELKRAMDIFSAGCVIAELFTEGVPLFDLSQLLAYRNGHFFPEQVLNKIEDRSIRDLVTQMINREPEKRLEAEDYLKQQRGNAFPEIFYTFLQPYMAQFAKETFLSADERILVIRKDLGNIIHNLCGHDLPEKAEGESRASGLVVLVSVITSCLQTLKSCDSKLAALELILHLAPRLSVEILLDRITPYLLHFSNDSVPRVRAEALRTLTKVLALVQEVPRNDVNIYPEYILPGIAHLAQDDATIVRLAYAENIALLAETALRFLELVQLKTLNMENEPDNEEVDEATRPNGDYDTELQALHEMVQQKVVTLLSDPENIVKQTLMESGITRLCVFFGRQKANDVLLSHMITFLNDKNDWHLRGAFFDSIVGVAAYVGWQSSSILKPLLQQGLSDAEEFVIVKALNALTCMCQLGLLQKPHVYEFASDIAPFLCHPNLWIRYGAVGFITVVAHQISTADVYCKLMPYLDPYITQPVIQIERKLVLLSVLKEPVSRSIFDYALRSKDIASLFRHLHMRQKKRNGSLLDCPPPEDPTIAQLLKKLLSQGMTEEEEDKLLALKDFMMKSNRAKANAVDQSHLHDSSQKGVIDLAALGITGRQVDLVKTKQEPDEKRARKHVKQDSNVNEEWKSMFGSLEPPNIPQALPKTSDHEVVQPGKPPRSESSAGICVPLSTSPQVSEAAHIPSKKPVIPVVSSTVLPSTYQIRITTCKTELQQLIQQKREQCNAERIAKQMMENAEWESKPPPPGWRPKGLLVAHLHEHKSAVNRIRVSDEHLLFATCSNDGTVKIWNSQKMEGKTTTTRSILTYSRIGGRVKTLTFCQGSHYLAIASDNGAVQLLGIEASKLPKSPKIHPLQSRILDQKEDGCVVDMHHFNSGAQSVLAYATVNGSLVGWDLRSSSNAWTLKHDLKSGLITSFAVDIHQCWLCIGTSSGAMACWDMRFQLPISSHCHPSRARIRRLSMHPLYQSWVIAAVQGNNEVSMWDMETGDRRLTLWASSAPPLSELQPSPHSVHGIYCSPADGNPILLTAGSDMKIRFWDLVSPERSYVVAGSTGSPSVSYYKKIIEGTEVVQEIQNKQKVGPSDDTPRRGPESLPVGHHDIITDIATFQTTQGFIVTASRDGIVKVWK

As to “GST-LRS protein: purified GST-LRS (leucyl-tRNA synthetase) protein expressed in E. coli BL21”, the “activity of Vps34 compared to the GST control” value in test [1] (purified protein added to Vps34 immune complex) is reported as “about 3 times”. Also, the “activity of Vps34 with leucine stimulation” value in test [1] (purified protein added to Vps34 immune complex, in the presence of leucine) was “further increased”.

Regarding “LRS mutation (F50A/Y52A): leucine binding deficient mutant of LRS”, the “activation of Vps34” value in test [1] (regardless of the presence or absence of leucine stimulation) is reported as “did not induce the activation of Vps34”.

For phosphatidic acid [PA], the “amount of phosphorylated S6K1” value in test [2] (LRS knocked-down, FIG. 11) is reported as “increased again”. Besides, the “amount of S6K1 phosphorylated” value in test [2] (both LRS and RagD knocked-down) is given as “partially increased”.

In the case of `C[C@@H]1COCCN1c1cc(=O)n2c(n1)N(Cc1cncc(Cl)c1)[C@H](C(F)(F)F)CC2` [SAR405], the “S6K1 phosphorylation increased by LRS overexpression” value in test [3] (HEK293 cells co-transfected with Myc-LRS and Myc-S6K1, SAR405 3 μM, FIG. 3C) is given as “reduced”. The “S6K1 phosphorylation induced by total amino acids” value in test [3] (HEK293 cells, FIG. 3B) is given as “reduced”. In addition, in test [3] (HEK293 cells, tested at 0.1, 0.3, 1, 3 and 10 μM, amino acid stimulation), the “concentration at which S6K1 phosphorylation was completely inhibited” value is 3 µM.

B1: UNE-L domain of LRS: UNE-L domain of leucyl-tRNA synthetase C-terminus, polypeptide of the amino acid sequence SEQ. ID. NO: 1 (protein, listed as Homo sapiens)
chain: PGVSVSLVNPQPSNGHFSTKIEIRQGDNCDSIIRRLMKMNRGIKDLSKVKLMRFDDPLLGPRRVPVLGKEYTEKTPISEHAVFNVDLMSKKIHLTENGIRVDIGDTIIYLVH
Regarding B1, in test [4], the “differentiation index of C2C12 cells” value was “increased”, the “fusion index of C2C12 cells” value was “increased” and the myotube size entry was “increased”. For the same molecule, in test [5] (BaCl2 after 7 weeks, 7 days later, FIGS. 18A and 18B), the “CSA of the muscle fibers generated during muscle regeneration” value was “increased”. Also, the “mean value of CSA” value in test [5] (FIG. 18C) is “increased significantly”. Moreover, in test [6], the “CSA of the muscle fibers generated during muscle regeneration” value is “increased”.
